Assay results published in publication PMC4000578 (Molecular microbiology, 2014).

Biological target: the molecule itself
Assay: cross-linking

B1: BrlR-His6V5 (Biofilm resistance locus Regulator with a C-terminal His6V5-tag) (natural protein, Pseudomonas aeruginosa PAO1, UniProt Q9HUT5 1-270, looked up)
chain: MLTIGQLARIFEISTKTLRHYDAIGLFVPARTGSDNGYRYYQPEQIEQLSRILALRRLDVPLEAIDRLKRDGALDDPQRLRHFLQRHQHTLREEISARQRLLAELDRTLATLAHWRIRNMHARIVERPAFSVVGMEYFGSAPGDTIGQLWERFIPREHEIAGKHDPEVSYGICAQQPNGEFHYVAGFEVQEGWPVPEGMVRFQVPAQKYAVFTHKGTAPQIAESFQAIYSHLLAERGLEPKAGVDFEYYDQRFRGPLDPNSQVDLYIPIY
Question: For B1, which “stoichiometry N” value is on record?
Answer: 2
